What was measured:
[1] = molecular target: LgBiT-mini-Gs fusion protein; assay: NanoBiT mini-Gαs recruitment assay; conditions: agonist fenoldopam; three independent experiments; parent: est. 7.2; read off a plot
[2] = molecular target: smBiT-β-arrestin (an N-terminal smBiT) (UniProt P32121); assay: NanoBiT β-arrestin recruitment assay; conditions: highest fenoldopam concentration shown, log[Fenoldopam] M about -4.3; parent: est. 2.7; read off a plot

| Substance | other: pEC50 [1] | response [2] |
| --- | --- | --- |
| D1R-SmBiT fusion protein (WT) (from UniProt P21728) F289A | 6.1 | – |
| D1R-SmBiT fusion protein (WT) (from UniProt P21728) L190A | 5 | – |
| D1R-SmBiT fusion protein (WT) (from UniProt P21728) S198G | 5.1 | – |
| D1R-SmBiT fusion protein (WT) (from UniProt P21728) F288A | 6 | – |
| D1R-SmBiT fusion protein (WT) (from UniProt P21728) W321F | 6.5 | – |
| D1R-LgBit (WT) (from UniProt P21728) K81V | – | 1.2 fold change |
| D1R-SmBiT fusion protein (WT) (from UniProt P21728) K81V | 6 | – |
| D1R-SmBiT fusion protein (WT) (from UniProt P21728) S202A | 6.6 | – |
| D1R-SmBiT fusion protein (WT) (from UniProt P21728) N292L | 5.4 | – |
